Data as given in article PMC5784169, “Repression of Akt3 gene transcription by the tumor suppressor RIZ1”.

Tests used:
GST-RIZ1-Zf1-3 = target: T1, GST-RIZ1-Zf1-3 (UniProt Q13029 360-506); test: EMSA; abolished by 30-fold excess unlabeled probe; LightShift Chemiluminescent EMSA kit, native PAGE; buffer, salt, pH and temperature not stated; conditions: protein: recombinant; tags: N-terminal GST (pGEX-KG); label: 3' biotin; blunt
T1 sequence: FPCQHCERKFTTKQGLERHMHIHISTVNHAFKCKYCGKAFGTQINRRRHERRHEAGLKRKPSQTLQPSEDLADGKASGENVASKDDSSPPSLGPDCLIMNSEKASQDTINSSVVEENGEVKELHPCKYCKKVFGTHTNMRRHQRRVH

GST-RIZ1-Zf8 = target: T2, GST-RIZ1-Zf8 (UniProt Q13029 1455-1478); test: as above; conditions: protein: recombinant; tags: N-terminal GST (pGEX-KG); label: 3' biotin; blunt
T2 chain: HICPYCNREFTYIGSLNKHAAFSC

B1: mouse Akt3 promoter CpG146 probe (dsDNA)
DNA 1: GGGGAGGGGCCGTCTGCGCATGTGGCGGGAGTGCGGGCGA
DNA 2: TCGCCCGCACTCCCGCCACATGCGCAGACGGCCCCTCCCC
binding result (GST-RIZ1-Zf1-3): binds
binding result (GST-RIZ1-Zf8): binds
